{"source": "the supplement of paper PMC9170038", "tested_on": "MS2 coat protein", "test": "apparent KD of MS2 coat protein; designed switch direction (-1 OFF switch, 1 ON switch): 1; higher = weaker reporter binding", "method_in_brief": "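Each step of the titration lasted 0.8–1.5 h at the lowest concentration and 10–20 min at the highest. The protein, SNAP-549-labelled MS2 coat protein, went from 0.7 or 1.5 nM doubling to 3 µM over RNA switches transcribed on Illumina chips by stalled E. coli RNA polymerase. Normalised cluster fluorescence was curve-fitted, and the per-design median over clusters is given as apparent KD.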", "key": {"[1]": {"conditions": "Eterna round: R95, input ligand: FMN 200 uM"}, "[2]": {"conditions": "Eterna round: R95, input ligand: microRNA oligo, concentration not stated"}, "[3]": {"conditions": "Eterna round: R95, input ligand: none"}, "[4]": {"conditions": "input ligand: microRNA oligo, concentration not stated"}}}
{"sequence": "GACAAUUGACAUGAGGAUCACCCAUGUAUUACUUCGUGUUUUUGCUCGUCUUAUGUUAGGUUCGAAAGGAGCUUAAC [Polished] (puzzle: Sensor for hsa-mir-208a version 2)", "values": [{"measurement": "apparent KD of MS2 coat protein", "setting": "[1]", "value": 0.0686, "unit": "µM"}, {"measurement": "apparent KD of MS2 coat protein", "setting": "[2]", "value": 0.0162, "unit": "µM"}, {"measurement": "apparent KD of MS2 coat protein", "setting": "[3]", "value": 0.0867, "unit": "µM"}]}
{"sequence": "GUAUAACAUGAGGAUCACCCAUGUCAUCUAAGUCGAGGAUAUGGGCAAAUAAUAUAAGAACCAGAAGGCGAAUAUG [Mat - Same State 1 - Mod of UCT - D35] (puzzle: Same State 1)", "values": [{"measurement": "apparent KD of MS2 coat protein", "setting": "[1]", "value": 0.0618, "unit": "µM"}, {"measurement": "apparent KD of MS2 coat protein", "setting": "[2]", "value": 0.122, "unit": "µM"}, {"measurement": "apparent KD of MS2 coat protein", "setting": "[3]", "value": 0.359, "unit": "µM"}]}
{"sequence": "UUAAUAAUGAUAGGAUAUACAUGAGGAAUUCUCGUAGAAGGAUCAUGACAUGAGGAUCACCCAUGUAACGCUCAGAAGAGCGUA [Mat - Same State NG 1 - JL mod - D37] (Eterna round: R96, puzzle: Same State NG 1)", "values": [{"measurement": "apparent KD of MS2 coat protein", "setting": "input ligand: FMN 200 uM", "value": 0.493, "unit": "µM"}, {"measurement": "apparent KD of MS2 coat protein", "setting": "[4]", "value": 0.184, "unit": "µM"}, {"measurement": "apparent KD of MS2 coat protein", "setting": "input ligand: none", "value": 0.73, "unit": "µM"}]}
{"sequence": "UGCAUACAUGAGGAUCACCCAUGUCAACGUAGUCGAGGAUAUGGGCAGCCGUGAGGCGAACCAGAAGGCGAAUUGU [JL-ss1-3.03 ViennaUCT mod] (puzzle: Same State 1)", "values": [{"measurement": "apparent KD of MS2 coat protein", "setting": "[1]", "value": 0.0231, "unit": "µM"}, {"measurement": "apparent KD of MS2 coat protein", "setting": "[2]", "value": 0.0527, "unit": "µM"}, {"measurement": "apparent KD of MS2 coat protein", "setting": "[3]", "value": 0.115, "unit": "µM"}]}
{"sequence": "GGGCCAGCUUUUGCUGGGCCAAAGCUUGCACAUGAGGAUCACCCAUGUCGUGUACACGCUUCCUGCCCGUCUUGUUU [Photon Torp-20] (puzzle: Sensor for hsa-mir-208a)", "values": [{"measurement": "apparent KD of MS2 coat protein", "setting": "[1]", "value": 0.0265, "unit": "µM"}, {"measurement": "apparent KD of MS2 coat protein", "setting": "[2]", "value": 0.0166, "unit": "µM"}, {"measurement": "apparent KD of MS2 coat protein", "setting": "[3]", "value": 0.0294, "unit": "µM"}]}
{"sequence": "GGUAGGUUACUACCAACACAUGAGGAUCACCCAUGUUAGUGGGAGGAUAUGGUACCUAUUUGGUACCAGAAGGUCCAGUUAAUU [Fiskers NG3ss - 15] (Eterna round: R96, puzzle: Same State NG 3)", "values": [{"measurement": "apparent KD of MS2 coat protein", "setting": "input ligand: FMN 200 uM", "value": 0.131, "unit": "µM"}, {"measurement": "apparent KD of MS2 coat protein", "setting": "[4]", "value": 0.161, "unit": "µM"}, {"measurement": "apparent KD of MS2 coat protein", "setting": "input ligand: none", "value": 0.435, "unit": "µM"}]}
{"sequence": "AACAAACGCGGAGGAUAUGGGCGAGGCGCGGAAGUCCACGCCAAAACAUGAGGAUCACCCAUGUCCCAGAAGGCCGCACAAAAU [Gererier] (Eterna round: R96, puzzle: Same State NG 2)", "values": [{"measurement": "apparent KD of MS2 coat protein", "setting": "input ligand: FMN 200 uM", "value": 0.0163, "unit": "µM"}, {"measurement": "apparent KD of MS2 coat protein", "setting": "[4]", "value": 0.0408, "unit": "µM"}, {"measurement": "apparent KD of MS2 coat protein", "setting": "input ligand: none", "value": 0.0491, "unit": "µM"}]}
{"sequence": "CUGUACCAUGGAGGAUAUGGGCUGAGACCAGGACAACCCUGGUCAACAUGAGGAUCACCCAUGUCCCAGAAGGCCACGGUGCUA [Anraores] (Eterna round: R96, puzzle: Same State NG 2)", "values": [{"measurement": "apparent KD of MS2 coat protein", "setting": "input ligand: FMN 200 uM", "value": 0.016, "unit": "µM"}, {"measurement": "apparent KD of MS2 coat protein", "setting": "[4]", "value": 0.103, "unit": "µM"}, {"measurement": "apparent KD of MS2 coat protein", "setting": "input ligand: none", "value": 0.132, "unit": "µM"}]}
{"sequence": "ACAUGAGACAUAGGAUAUGUUGUACCUACAUGUGACAUGAGGAUCACCCAUGUGGUAAGUAUGAGGCAGAAGGAUGAGAUAUGU [Equivalence 40 - Jieux - Same State NG 2] (Eterna round: R96, puzzle: Same State NG 2)", "values": [{"measurement": "apparent KD of MS2 coat protein", "setting": "input ligand: FMN 200 uM", "value": 0.0503, "unit": "µM"}, {"measurement": "apparent KD of MS2 coat protein", "setting": "[4]", "value": 0.037, "unit": "µM"}, {"measurement": "apparent KD of MS2 coat protein", "setting": "input ligand: none", "value": 0.0741, "unit": "µM"}]}
{"sequence": "GGGAGAGGCGCAGGAUAUGGUGAGGAUCACCCACUAGAAGGGUGCACAUGAGAAUCGGACAUGAGGAUCACCCAUGUCCGGCGC (Eterna round: R96, puzzle: Same State NG 1)", "values": [{"measurement": "apparent KD of MS2 coat protein", "setting": "input ligand: FMN 200 uM", "value": 0.375, "unit": "µM"}, {"measurement": "apparent KD of MS2 coat protein", "setting": "[4]", "value": 0.143, "unit": "µM"}, {"measurement": "apparent KD of MS2 coat protein", "setting": "input ligand: none", "value": 0.445, "unit": "µM"}]}
{"sequence": "CGUCCAGCCUGAGCUGGACAAAAGCAUGUACAUGAGGAUCACCCAUGUUCAUGUACAAGCUUUUUGCUCGUCUUAUA [salish99_208a_r3_046] (puzzle: Sensor for hsa-mir-208a)", "values": [{"measurement": "apparent KD of MS2 coat protein", "setting": "[1]", "value": 0.585, "unit": "µM"}, {"measurement": "apparent KD of MS2 coat protein", "setting": "[2]", "value": 0.0139, "unit": "µM"}, {"measurement": "apparent KD of MS2 coat protein", "setting": "[3]", "value": 0.479, "unit": "µM"}]}
{"sequence": "UUAACAUGAGGAUCACCCAUGUAUAGGGAGUUAGCAAUUGGACAGGAUAUUGAAGAUGUAGAUAGCAAGAAGGGUCGGUAGUCU [JR_SSNG3_Sub002] (Eterna round: R96, puzzle: Same State NG 3)", "values": [{"measurement": "apparent KD of MS2 coat protein", "setting": "input ligand: FMN 200 uM", "value": 0.0368, "unit": "µM"}, {"measurement": "apparent KD of MS2 coat protein", "setting": "[4]", "value": 0.0329, "unit": "µM"}, {"measurement": "apparent KD of MS2 coat protein", "setting": "input ligand: none", "value": 0.0467, "unit": "µM"}]}
{"sequence": "AAAGCACAUGAGGAUCACCCAUGUGGAAAUAACACAGGAUAUCCUGCCGAAACUAAGGUGGGAGAAGGGUGACCUA [Iszagece] (puzzle: Same State 1)", "values": [{"measurement": "apparent KD of MS2 coat protein", "setting": "[1]", "value": 0.147, "unit": "µM"}, {"measurement": "apparent KD of MS2 coat protein", "setting": "[2]", "value": 0.054, "unit": "µM"}, {"measurement": "apparent KD of MS2 coat protein", "setting": "[3]", "value": 0.0559, "unit": "µM"}]}
